Data taken from article PMC5665922.
Where “and” joins values, the source holds several entries; their conditions need not be identical. Equal entries are not always repeated.

B1: Histidine-tagged vault-interacting domain of vault poly(ADP-ribose)-polymerase (His-INT) (domain or fragment)
chain: CIQHWQDAVPWTELLSLQTEDGFWKLTPELGLILNLNTNGLHSFLKQKGIQSLGVKGRECLLDLIATMLVLQFIRTRLEKEGIVFKSLMKMDDASISRNIPWAFEAIKQASEWVRRTEGQYPSICPRLELGNDWDSATKQLLGLQPISTVSPLHRVLHYSQG
B2: His-INTΔC15 (His-INT with 15 amino acids deleted at the C terminus) (domain or fragment)
chain: CIQHWQDAVPWTELLSLQTEDGFWKLTPELGLILNLNTNGLHSFLKQKGIQSLGVKGRECLLDLIATMLVLQFIRTRLEKEGIVFKSLMKMDDASISRNIPWAFEAIKQASEWVRRTEGQYPSICPRLELGNDWDSATKQLLGLQPI

Assays:
[1] = biological target: Histidine-tagged INT-interacting MVP domains (His-iMVP), major vault protein domains 3 to 5; experiment: SEC; His-iMVP and His-INT mixed at equimolar ratio (70 μM), overnight at 4 °C, Superdex 75 10/300 GL; band densities of peak fractions on SDS-PAGE
[2] = biological target: Histidine-tagged INT-interacting MVP domains (His-iMVP), major vault protein domains 3 to 5; experiment: SPR; Biacore 3000, His-iMVP amine-coupled to CM5 (410, 1860 or 1240 RU), His-INT or variant injected, 25 °C, 50 mM PBS, 150 mM NaCl, pH 7.4; 1-to-1 Langmuir fit; apparent constants

Binder	stoichiometry N [1]	Kd [2] [nM]	T1/2 [2] [min]	koff [2] [s⁻¹]	kon [2] [M⁻¹ s⁻¹]	stoichiometry N [2]
B1	1 and 2	262	13.9	0.0006	2280	1
B2		1800	9.4	0.00089	485	1
